Measurements reported in IntAct's records for PubMed 23756461.

B1: Cell shape-determining protein MreB (Escherichia coli (strain K12)), P0A9X4 (parent)
chain: MLKKFRGMFSNDLSIDLGTANTLIYVKGQGIVLNEPSVVAIRQDRAGSPKSVAAVGHDAKQMLGRTPGNIAAIRPMKDGVIADFFVTEKMLQHFIKQVHSNSFMRPSPRVLVCVPVGATQVERRAIRESAQGAGAREVFLIEEPMAAAIGAGLPVSEATGSMVVDIGGGTTEVAVISLNGVVYSSSVRIGGDRFDEAIINYVRRNYGSLIGEATAERIKHEIGSAYPGDEVREIEVRGRNLAEGVPRGFTLNSNEILEALQEPLTGIVSAVMVALEQCPPELASDISERGMVLTGGGALLRNLDRLLMEETGIPVVVAEDPLTCVARGGGKALEMIDMHGGDLFSEE
B2: Cell division protein FtsZ (Escherichia coli (strain K12)), P0A9A6 (parent)
chain: MFEPMELTNDAVIKVIGVGGGGGNAVEHMVRERIEGVEFFAVNTDAQALRKTAVGQTIQIGSGITKGLGAGANPEVGRNAADEDRDALRAALEGADMVFIAAGMGGGTGTGAAPVVAEVAKDLGILTVAVVTKPFNFEGKKRMAFAEQGITELSKHVDSLITIPNDKLLKVLGRGISLLDAFGAANDVLKGAVQGIAELITRPGLMNVDFADVRTVMSEMGYAMMGSGVASGEDRAEEAAEMAISSPLLEDIDLSGARGVLVNITAGFDLRLDEFETVGNTIRAFASDNATVVIGTSLDPDMNDELRVTVVATGIGMDKRPEITLVTNKQVQQPVMDRYQQHGMAPLTQEQKPVAKVVNDNAPQTAKEPDYLDIPAFLRKQAD

Variants of: B1
Settings: with ftsz_ecoli ftsZ

Variant | effect of a mutation on the interaction
D285A | disrupting interaction

Variants of: B2
Settings: with mreb_ecoli mreB

Variant | effect of a mutation on the interaction
P203Q | disrupting interaction
